Laboratory results from the RNAGym collection of RNA variant scans (doi:10.7554/elife.80360).

B1: Hairpin Ribozyme (parent)
chain: GUCCUCUUUCACGUGCGCGUGAAAGAGAGAAGUGAACCAGAGAAACACACGUUGUGGUAUAUUACCUGGUA

Variants of: B1
Assay: self-cleavage, relative activity (ratio to wild type); higher = more cleavage; co-transcriptional

For GUCCUCUUUCACGUGCGCGUGAAAGAGAGAAGUGAACCAGAGAAACACACGUUGCGGUAUAGUACCUGGUA [U55C U62G], which self-cleavage is on record?
Its self-cleavage is 0.132.

With GUCCUCUUUCACGUGCGCGUGAAAGAGAGAAGUGAACCAGAGAAACACACGUUGUCGUAUAUUACGUGGUA [G56C C66G] as the variant, how does the self-cleavage read?
The self-cleavage was 0.209.

Which self-cleavage does the source give for GUCCUCUUUCACGUGCGCGUGAAAGAGAGAAGUGAACCAGAGAAACACACGUUGUCGUAUAUUACUUGGUA [G56C C66U] here?
The self-cleavage was 0.199.

With GUCCUCUUUCACGUGCGCGUGAAAGAGAGAAGUGAACCAGAGAAACACACGUUGUCGUAUAUUACAUGGUA [G56C C66A] as the variant, how does the self-cleavage read?
The self-cleavage was 0.156.

Which self-cleavage does the source give for GUCCUCUUUCACGUGCGCGUGAAAGAGAGAAGUGAACCAGAGAAACACACGUUGUAGUAUAUUCCCUGGUA [G56A A64C] here?
Its self-cleavage is 0.0783.

Which self-cleavage does the source give for GUCCUCUUUCACGUGCGCGUGAAAGAGAGAAGUGAACCAGAGAAACACACGUUGUAGUAUAUUGCCUGGUA [G56A A64G] here?
The self-cleavage was 0.12.

With GUCCUCUUUCACGUGCGCGUGAAAGAGAGAAGUGAACCAGAGAAACACACGUUGUAGUAUAUUUCCUGGUA [G56A A64U] as the variant, how does the self-cleavage read?
Its self-cleavage is 0.135.

With GUCCUCUUUCACGUGCGCGUGAAAGAGAGAAGUGAACCAGAGAAACACACGUUGUCGUAGAUUACCUGGUA [G56C U60G] as the variant, how does the self-cleavage read?
Its self-cleavage is 0.111.

With GUCCUCUUUCACGUGCGCGUGAAAGAGAGAAGUGAACCAGAGAAACACACGUUGUAGUGUAUUACCUGGUA [G56A A59G] as the variant, how does the self-cleavage read?
Its self-cleavage is 0.167.

For GUCCUCUUUCACGUGCGCGUGAAAGAGAGAAGUGAACCAGAGAAACACACGUUGUCAUAUAUUACCUGGUA [G56C G57A], which self-cleavage is on record?
The self-cleavage was 0.115.

Which self-cleavage does the source give for GUCCUCUUUCACGUGCGCGUGAAAGAGAGAAGUGAACCAGAGAAACACACGUUGGGGUACAUUACCUGGUA [U55G U60C] here?
The self-cleavage was 0.408.

Which self-cleavage does the source give for GUCCUCUUUCACGUGCGCGUGAAAGAGAGAAGUGAACCAGAGAAACACACGUUGUCGAAUAUUACCUGGUA [G56C U58A] here?
The self-cleavage was 0.2.

Which self-cleavage does the source give for GUCCUCUUUCACGUGCGCGUGAAAGAGAGAAGUGAACCAGAGAAACACACGUUGUCGCAUAUUACCUGGUA [G56C U58C] here?
Its self-cleavage is 0.246.

Which self-cleavage does the source give for GUCCUCUUUCACGUGCGCGUGAAAGAGAGAAGUGAACCAGAGAAACACACGUUGUCGUAUAUUACCUGAUA [G56C G69A] here?
The self-cleavage was 0.135.

With GUCCUCUUUCACGUGCGCGUGAAAGAGAGAAGUGAACCAGAGAAACACACGUUGGGGUAUAUUAACUGGUA [U55G C65A] as the variant, how does the self-cleavage read?
The self-cleavage was 0.3.

For GUCCUCUUUCACGUGCGCGUGAAAGAGAGAAGUGAACCAGAGAAACACACGUUGUCGUAUAUUACCUGGUC [G56C A71C], which self-cleavage is on record?
The self-cleavage was 0.315.

Which self-cleavage does the source give for GUCCUCUUUCACGUGCGCGUGAAAGAGAGAAGUGAACCAGAGAAACACACGUUGUGAUAUAUUUCCUGGUA [G57A A64U] here?
Its self-cleavage is 0.119.

Which self-cleavage does the source give for GUCCUCUUUCACGUGCGCGUGAAAGAGAGAAGUGAACCAGAGAAACACACGUUGUUGUAUUUUACCUGGUA [G56U A61U] here?
The self-cleavage was 0.124.

For GUCCUCUUUCACGUGCGCGUGAAAGAGAGAAGUGAACCAGAGAAACACACGUUGUUGUAUAUUACCUUGUA [G56U G68U], which self-cleavage is on record?
Its self-cleavage is 0.276.

With GUCCUCUUUCACGUGCGCGUGAAAGAGAGAAGUGAACCAGAGAAACACACGUUGUUGAAUAUUACCUGGUA [G56U U58A] as the variant, how does the self-cleavage read?
Its self-cleavage is 0.0912.

Which self-cleavage does the source give for GUCCUCUUUCACGUGCGCGUGAAAGAGAGAAGUGAACCAGAGAAACACACGUUGUCGUAUAUUACCUGGUA [G56C] here?
Its self-cleavage is 0.156.

With GUCCUCUUUCACGUGCGCGUGAAAGAGAGAAGUGAACCAGAGAAACACACGUUGUUGUAUAUUACCUGGUA [G56U] as the variant, how does the self-cleavage read?
The self-cleavage was 0.157.

For GUCCUCUUUCACGUGCGCGUGAAAGAGAGAAGUGAACCAGAGAAACACACGUUGUAGUAUAUUACCUGGUA [G56A], which self-cleavage is on record?
The self-cleavage was 0.174.

With GUCCUCUUUCACGUGCGCGUGAAAGAGAGAAGUGAACCAGAGAAACACACGUUGUAGUAAAUUACCUGGUA [G56A U60A] as the variant, how does the self-cleavage read?
The self-cleavage was 0.121.

Which self-cleavage does the source give for GUCCUCUUUCACGUGCGCGUGAAAGAGAGAAGUGAACCAGAGAAACACACGUUGUAGUACAUUACCUGGUA [G56A U60C] here?
Its self-cleavage is 0.219.

For GUCCUCUUUCACGUGCGCGUGAAAGAGAGAAGUGAACCAGAGAAACACACGUUGUCGUAUACUACCUGGUA [G56C U62C], which self-cleavage is on record?
Its self-cleavage is 0.244.

With GUCCUCUUUCACGUGCGCGUGAAAGAGAGAAGUGAACCAGAGAAACACACGUUGCGGUAUAUCACCUGGUA [U55C U63C] as the variant, how does the self-cleavage read?
Its self-cleavage is 0.233.

With GUCCUCUUUCACGUGCGCGUGAAAGAGAGAAGUGAACCAGAGAAACACACGUUGUUUUAUAUUACCUGGUA [G56U G57U] as the variant, how does the self-cleavage read?
Its self-cleavage is 0.204.

For GUCCUCUUUCACGUGCGCGUGAAAGAGAGAAGUGAACCAGAGAAACACACGUUGUUAUAUAUUACCUGGUA [G56U G57A], which self-cleavage is on record?
Its self-cleavage is 0.222.

For GUCCUCUUUCACGUGCGCGUGAAAGAGAGAAGUGAACCAGAGAAACACACGUUGUUCUAUAUUACCUGGUA [G56U G57C], which self-cleavage is on record?
Its self-cleavage is 0.144.

Which self-cleavage does the source give for GUCCUCUUUCACGUGCGCGUGAAAGAGAGAAGUGAACCAGAGAAACACACGUUGUUGUAUAUAACCUGGUA [G56U U63A] here?
Its self-cleavage is 0.157.

For GUCCUCUUUCACGUGCGCGUGAAAGAGAGAAGUGAACCAGAGAAACACACGUUGGGUUAUAUUACCUGGUA [U55G G57U], which self-cleavage is on record?
The self-cleavage was 0.222.

Which self-cleavage does the source give for GUCCUCUUUCACGUGCGCGUGAAAGAGAGAAGUGAACCAGAGAAACACACGUUGUCGUAUAUUACCUGGAA [G56C U70A] here?
The self-cleavage was 0.272.

Which self-cleavage does the source give for GUCCUCUUUCACGUGCGCGUGAAAGAGAGAAGUGAACCAGAGAAACACACGUUGUCGUAUAUUACCUGGCA [G56C U70C] here?
The self-cleavage was 0.134.

For GUCCUCUUUCACGUGCGCGUGAAAGAGAGAAGUGAACCAGAGAAACACACGUUGCGGUAUAUUACCUGGGA [U55C U70G], which self-cleavage is on record?
Its self-cleavage is 0.203.

With GUCCUCUUUCACGUGCGCGUGAAAGAGAGAAGUGAACCAGAGAAACACACGUUGGAGUAUAUUACCUGGUA [U55G G56A] as the variant, how does the self-cleavage read?
The self-cleavage was 0.125.

With GUCCUCUUUCACGUGCGCGUGAAAGAGAGAAGUGAACCAGAGAAACACACGUUGUCGUAUAUUAACUGGUA [G56C C65A] as the variant, how does the self-cleavage read?
The self-cleavage was 0.274.

For GUCCUCUUUCACGUGCGCGUGAAAGAGAGAAGUGAACCAGAGAAACACACGUUGUCGUAUAUUACCCGGUA [G56C U67C], which self-cleavage is on record?
The self-cleavage was 0.138.
